Data on one substance can be found in patent US20250289897A1, “LEPTIN RECEPTOR AGONISTIC ANTIBODY AS MONO OR COMBO THERAPIES TO TREAT OBESITY” (ELI LILLY AND COMPANY, priority 2024, published 2025).

The target in the assay is T1, rat-LEPR (Rattus norvegicus, UniProt Q62959).
T1 construct: introducing DNA plasmids encoding full-length LEPR of different species and STAT3-luciferase reporter gene into HEK293 cells; expressed in transfected cells; host or cells: HEK293 (HEK293-STAT3Luc-ratLepR3)
T1 sequence (Q62959 22-1162): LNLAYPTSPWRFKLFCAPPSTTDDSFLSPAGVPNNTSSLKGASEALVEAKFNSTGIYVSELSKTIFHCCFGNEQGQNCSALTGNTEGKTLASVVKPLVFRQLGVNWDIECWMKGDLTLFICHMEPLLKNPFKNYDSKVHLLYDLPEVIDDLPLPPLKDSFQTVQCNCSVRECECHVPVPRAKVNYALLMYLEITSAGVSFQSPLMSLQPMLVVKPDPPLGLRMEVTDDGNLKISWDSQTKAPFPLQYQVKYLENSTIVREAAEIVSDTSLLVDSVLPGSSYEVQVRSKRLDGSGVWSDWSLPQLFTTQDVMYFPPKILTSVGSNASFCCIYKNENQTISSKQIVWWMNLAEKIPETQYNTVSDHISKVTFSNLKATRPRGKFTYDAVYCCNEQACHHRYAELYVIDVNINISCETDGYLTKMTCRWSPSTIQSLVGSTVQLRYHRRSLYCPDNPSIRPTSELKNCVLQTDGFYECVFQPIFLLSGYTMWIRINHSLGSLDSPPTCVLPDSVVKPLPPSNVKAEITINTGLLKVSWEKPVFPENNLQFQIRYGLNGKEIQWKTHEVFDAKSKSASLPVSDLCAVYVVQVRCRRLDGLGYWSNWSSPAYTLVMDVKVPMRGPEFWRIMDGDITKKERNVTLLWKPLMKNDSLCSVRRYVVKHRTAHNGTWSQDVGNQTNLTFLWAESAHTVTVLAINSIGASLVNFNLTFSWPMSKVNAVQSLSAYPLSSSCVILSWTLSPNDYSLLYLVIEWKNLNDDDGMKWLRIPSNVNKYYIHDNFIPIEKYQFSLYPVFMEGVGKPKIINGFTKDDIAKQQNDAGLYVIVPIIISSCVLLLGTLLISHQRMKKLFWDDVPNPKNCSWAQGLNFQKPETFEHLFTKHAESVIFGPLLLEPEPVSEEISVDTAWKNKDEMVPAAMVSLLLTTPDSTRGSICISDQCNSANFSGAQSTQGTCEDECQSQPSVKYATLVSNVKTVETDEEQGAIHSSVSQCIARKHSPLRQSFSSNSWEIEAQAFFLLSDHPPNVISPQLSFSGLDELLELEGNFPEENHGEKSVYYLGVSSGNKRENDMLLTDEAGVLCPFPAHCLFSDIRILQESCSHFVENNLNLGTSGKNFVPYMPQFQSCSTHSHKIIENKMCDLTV
The assay is described as follows: STAT3-luciferase reporter assay in HEK293-STAT3Luc-ratLepR3 cells. Format: cell-based. The text has this: LEPR is a cell surface single-pass transmembrane receptor. Activation of LEPR leads to phosphorylation of intracellular STAT3 (pSTAT3) and subsequent target gene transcription. To measure LEPR activation by anti-LEPR antibodies in the present disclosure, five independent STAT-luciferase reporter cell lines were established by introducing DNA plasmids encoding full-length LEPR of different species and STAT3-luciferase reporter gene into HEK293 cells (Table 4). […]
Before plating the cells for luciferase assays, the poly-D-Lysine coated 96-well plates (Corning Inc, #354651) were rinsed once with phosphate buffered solution (PBS). […] Cell lysing and One-Glo luciferase substrate solution (Promega, #E6120) were then added to each well, and relative luciferase units (RLUs) were measured on a ClarioStar plate reader. For each reporter cell line, positive control LEPR activation was calculated as the average RLUs stimulated by 20 nM recombinant human leptin protein (SEQ ID NO:27) minus the average RLUs of unstimulated cells and was set as maximum LEPR activation (100%). […]

Take “human leptin: recombinant human leptin protein (SEQ ID NO:27), positive control”: where the note is “antibodies at concentrations up to 90 nM, read-out: EC50 (nM) ± SEM”, the EC50 came to 6.29 ± 0.62 nM. Besides, the “Agonism (%) ± SEM” value (vs 20 nM recombinant human leptin, antibodies up to 90 nM) is recorded as 106.1%.
